Experimental findings from patent US20050114927A1 (RUTGERS THE STATE UNIVERSITY, published 2005) are described below.

The assay concerns the target T1, Yeast wild-type ribosomal protein L3 (rpl3), in vitro synthesized, free form (Saccharomyces cerevisiae (yeast), UniProt P14126 1-387).
T1 construct: also called wild-type L3; radiolabeled L3
As to the kind of experiment: co-immunoprecipitation, isolated proteins in vitro.

T1 sequence (P14126 whole entry): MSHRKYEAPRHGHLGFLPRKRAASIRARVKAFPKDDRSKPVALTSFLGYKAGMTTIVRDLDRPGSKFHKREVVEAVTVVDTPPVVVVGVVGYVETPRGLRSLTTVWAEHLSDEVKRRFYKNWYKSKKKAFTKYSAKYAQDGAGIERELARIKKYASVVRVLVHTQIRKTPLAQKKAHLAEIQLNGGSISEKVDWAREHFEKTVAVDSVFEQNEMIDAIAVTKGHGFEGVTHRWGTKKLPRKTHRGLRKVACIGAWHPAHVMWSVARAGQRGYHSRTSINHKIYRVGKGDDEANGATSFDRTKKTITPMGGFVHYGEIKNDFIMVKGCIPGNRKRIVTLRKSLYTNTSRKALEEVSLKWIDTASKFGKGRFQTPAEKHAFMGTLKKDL

B1: Pokeweed antiviral protein (PAP) (enzyme)
chain: VNTIIYNVGSTTISKYATFLNDLRNEAKDPSLKCYGIPMLPNTNTNPKYVLVELQGSNKKTITLMLRRNNLYVMGYSDPFETNKCRYHIFNDISGTERQDVETTLCPNANSRVSKNINFDSRYPTLESKAGVKSRSQVQLGIQILDSNIGKISGVMSFTEKTEAEFLLVAIQMVSEAARFKYIENQVKTNFNRAFNPNPKVLNLQETWGKISTAIHDAKNGVLPKPLELVDASGAKWIVLRVDEIKPDVALLNYVGGSCQTTY
notes: mature
In the case of B1, the binding result is given as “binds”.
